Measured values from patent publication US20250000946A1 (WUXI BIOLOGICS IRELAND, published 2025).
Like-named read-outs stand apart in the source and are kept apart here.

T1: Human IL-2Rα/β/γ complex (high affinity IL-2 receptor) (human, UniProt P01589 22-272; P14784 27-551; P31785 23-369)
T1 construct: whole, on cells
T1 sequence (looked up) 1: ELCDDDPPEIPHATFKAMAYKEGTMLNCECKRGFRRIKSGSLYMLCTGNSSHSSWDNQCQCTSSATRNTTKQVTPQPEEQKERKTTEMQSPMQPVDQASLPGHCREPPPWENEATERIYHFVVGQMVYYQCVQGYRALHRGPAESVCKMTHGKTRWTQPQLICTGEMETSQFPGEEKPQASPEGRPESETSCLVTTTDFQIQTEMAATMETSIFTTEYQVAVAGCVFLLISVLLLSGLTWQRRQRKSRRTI
T1 sequence (looked up) 2: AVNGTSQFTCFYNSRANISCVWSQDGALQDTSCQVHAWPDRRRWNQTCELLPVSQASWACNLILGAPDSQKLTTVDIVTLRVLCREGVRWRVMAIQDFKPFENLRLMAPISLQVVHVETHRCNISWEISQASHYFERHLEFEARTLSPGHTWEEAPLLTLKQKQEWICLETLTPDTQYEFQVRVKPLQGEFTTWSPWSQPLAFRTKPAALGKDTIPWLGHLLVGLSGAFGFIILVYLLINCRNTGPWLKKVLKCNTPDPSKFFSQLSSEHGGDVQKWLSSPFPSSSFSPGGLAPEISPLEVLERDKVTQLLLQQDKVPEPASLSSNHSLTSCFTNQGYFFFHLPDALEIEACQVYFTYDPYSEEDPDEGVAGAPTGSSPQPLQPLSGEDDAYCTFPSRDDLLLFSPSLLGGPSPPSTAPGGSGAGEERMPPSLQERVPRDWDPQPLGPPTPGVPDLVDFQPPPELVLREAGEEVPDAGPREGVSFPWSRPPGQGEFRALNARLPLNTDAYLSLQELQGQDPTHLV
T1 sequence (looked up) 3: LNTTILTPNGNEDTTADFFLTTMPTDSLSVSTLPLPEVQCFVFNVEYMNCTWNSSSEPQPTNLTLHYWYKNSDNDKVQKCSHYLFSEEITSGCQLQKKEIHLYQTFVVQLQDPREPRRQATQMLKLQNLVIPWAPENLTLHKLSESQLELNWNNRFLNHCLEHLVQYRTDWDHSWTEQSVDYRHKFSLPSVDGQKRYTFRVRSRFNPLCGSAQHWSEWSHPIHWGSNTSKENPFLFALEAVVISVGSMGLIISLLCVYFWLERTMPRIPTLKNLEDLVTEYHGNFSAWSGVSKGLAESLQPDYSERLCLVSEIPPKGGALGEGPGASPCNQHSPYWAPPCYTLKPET

T2: Human IL-2Rβ/γ (intermediate affinity IL-2 receptor) (human, UniProt P14784 27-551; P31785 23-369)
T2 sequence (looked up) 1: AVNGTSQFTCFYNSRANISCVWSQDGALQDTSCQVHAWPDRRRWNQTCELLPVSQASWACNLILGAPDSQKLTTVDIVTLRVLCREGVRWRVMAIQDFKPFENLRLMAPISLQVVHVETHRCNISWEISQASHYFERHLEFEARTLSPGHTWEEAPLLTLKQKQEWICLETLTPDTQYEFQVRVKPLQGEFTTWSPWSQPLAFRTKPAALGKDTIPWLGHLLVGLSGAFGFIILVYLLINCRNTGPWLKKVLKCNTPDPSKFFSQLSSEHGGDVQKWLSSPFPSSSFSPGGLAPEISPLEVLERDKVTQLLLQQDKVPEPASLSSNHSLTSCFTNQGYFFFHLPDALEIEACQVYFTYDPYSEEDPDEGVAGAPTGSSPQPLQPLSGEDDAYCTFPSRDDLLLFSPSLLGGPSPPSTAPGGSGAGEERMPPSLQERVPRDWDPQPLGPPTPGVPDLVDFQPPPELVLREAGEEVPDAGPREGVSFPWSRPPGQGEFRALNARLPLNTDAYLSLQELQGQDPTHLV
T2 sequence (looked up) 2: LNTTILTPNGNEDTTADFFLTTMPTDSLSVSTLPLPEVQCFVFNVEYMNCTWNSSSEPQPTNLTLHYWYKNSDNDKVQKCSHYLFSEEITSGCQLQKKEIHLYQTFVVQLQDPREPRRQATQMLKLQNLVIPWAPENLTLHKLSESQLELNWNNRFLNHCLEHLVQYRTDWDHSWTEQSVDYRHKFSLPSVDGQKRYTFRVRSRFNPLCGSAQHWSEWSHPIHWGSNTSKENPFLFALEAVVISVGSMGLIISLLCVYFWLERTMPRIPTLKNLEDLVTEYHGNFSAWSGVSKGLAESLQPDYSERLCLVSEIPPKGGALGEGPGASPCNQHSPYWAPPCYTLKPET


Columns and labels:
[1] = target: T1, Human IL-2Rα/β/γ complex (high affinity …); assay: FACS, MJ20 cells; EC50 fold vs T2U0.E44-1
Procedure: (§1) Human cutaneous T cell lymphoma HH cells, malignant non-Hodgkin's lymphoma NK92 cells and cutaneous T cell lymphoma MJ20 cells were used for binding assay. They both constitutively express IL-2Rβ (CD122) and […] (CD132), and NK92 and MJ20 also expresses IL-2Rα (CD25). HH, NK92 and MJ20 cells were cultured following ATCC guidance, then transferred to a 96-plate for binding analysis. Cells were incubated with IL-2/Fc fusion proteins at the indicated concentrations for 30 min at 4° C. to avoid internalization. Binding was detected by 2nd antibody of PE-anti-human Fc at 4° C. for another 30 min. The median fluorescence intensity (MFI) on HH and NK92 cells was measured using FACS.
(§2) Affinity of IL-2 variants to IL-2Rα/β/γ supported the same results (FIG. 8 and Table 7). […] And T2U0.E44-26, T2U0.E44-27, T2U0.E44-29 and T2U0.E44-30 induced hundreds to thousands affinity reduction in Treg compared to T2U0.E44-1. Binding curves in MJ20 cells (IL-2Rα/β/γ) also achieved similar trend (FIG. 8b). As a result, the method of C-terminal truncation and substitution of 129 was available to achieve IL-2Rβγ attenuated IL-2 variants.

[2] = target: T1, Human IL-2Rα/β/γ complex (high affinity …); assay: FACS, MJ20 cells
Procedure: as §1, §2

[3] = target: T2, Human IL-2Rβ/γ (intermediate affinity …); assay: cell-based or functional assay
[4] = target: T1, Human IL-2Rα/β/γ complex (high affinity …); assay: cell-based or functional assay
[5] = target: T1, Human IL-2Rα/β/γ complex (high affinity …); assay: FACS, NK92 cells
Procedure: as §1

[6] = target: T2, Human IL-2Rβ/γ (intermediate affinity …); assay: FACS, HH cells
Procedure: as §1

[7] = target: T2, Human IL-2Rβ/γ (intermediate affinity …); assay: FACS, HH cells; EC50 fold vs T2U0.E44-1
Procedure: as §1

[8] = target: T2, Human IL-2Rβ/γ (intermediate affinity …); assay: cell-based or functional assay; remark: listed apart in the source
[9] = target: T1, Human IL-2Rα/β/γ complex (high affinity …); assay: cell-based or functional assay; remark: listed apart in the source
[10] = target: T1, Human IL-2Rα/β/γ complex (high affinity …); assay: FACS, NK92 cells; EC50 fold vs T2U0.E44-1
Procedure: as §1

Affinity reduction [1] [fold] | EC50 [2] [nM] | Potency in human CD8+ T EC50 [3] [nM] | Potency reduction (CD8+ T) [3] [fold] | Potency in human Treg EC50 [4] [nM] | Potency reduction (Treg) [4] [fold] | EC50 [5] [nM] | EC50 [6] [nM] | Affinity reduction [7] [fold] | Potency in human CD8+ T EC50 [8] [nM] | Potency reduction (CD8+ T) [8] [fold] | Potency in human Treg EC50 [9] [nM] | Potency reduction (Treg) [9] [fold] | Affinity reduction [10] [fold] | Binder
13 | 183 | 493 | 24.7 | 2.64 | 1050 |  |  |  |  |  |  |  |  | W3XX115-T2U0.E44-30.uIgG4V1 (Fc fusion, IL-2 del STLT and I129T; E44 format, IgG4) APTSSSTKKTQLQLEHLLLDLQMILNGINNYKNPKLTRMLTFKFYMPKKATELKHLQCLEEELKPLEEVLNLAQSKNFHLRPRDLISNINVIVLELKGSETTFMCEYADETATIVEFLNRWITFCQSITESKYGPPCPPCPAPEFLGGPSVFLFPPKPKDTLMISRTPEVTCVVVDVSQEDPEVQFNWYVDGVEVHNAKTKPREEQFNSTYRVVSVLTVLHQDWLNGKEYKCKVSNKGLPSSIEKTISKAKGQPREPQVYTLPPCQEEMTKNQVSLWCLVKGFYPSDIAVEWESNGQPENNYKTTPPVLDSDGSFFLYSRLTVDKSRWQEGNVFSCSVMHEALHNHYTQKSLSLSLG heavy: EIQLQQSGPELVKPGASVKVSCKASGYSFTDYNMYWVKQSHGESLEWIGYIDPYNGGTRYNQKFKGKATLTVDKSSSTAFMHLNSLTSEDSAVYYCARNGHWDGAWFAYWGQGTLVTVSAASTKGPSVFPLAPCSRSTSESTAALGCLVKDYFPEPVTVSWNSGALTSGVHTFPAVLQSSGLYSLSSVVTVPSSSLGTKTYTCNVDHKPSNTKVDKRVESKYGPPCPPCPAPEFLGGPSVFLFPPKPKDTLMISRTPEVTCVVVDVSQEDPEVQFNWYVDGVEVHNAKTKPREEQFNSTYRVVSVLTVLHQDWLNGKEYKCKVSNKGLPSSIEKTISKAKGQPREPQVCTLPPSQEEMTKNQVSLSCAVKGFYPSDIAVEWESNGQPENNYKTTPPVLDSDGSFFLVSRLTVDKSRWQEGNVFSCSVMHEALHNHYTQKSLSLSLG light: DIQMNQSPSSLSASLGDTITITCHASQNINVWLSWYQQKPGNIPKLLIYKASNLHTGVPSRFSGSRSGTGFTLTISSLQPEDIATYYCHQGQSYPFTFGSGTKLEIKRTVAAPSVFIFPPSDEQLKSGTASVVCLLNNFYPREAKVQWKVDNALQSGNSQESVTEQDSKDSTYSLSSTLTLSKADYEKHKVYACEVTHQGLSSPVTKSFNRGEC
 |  |  |  |  |  | 8.52 | 54.5 | 1.76 | 96.5 | 10.1 | 1.44 | 55.6 | 1.55 | W3XX115-T2U0.E44-9.uIgG4V1 (Fc fusion, IL-2 with C-terminal 7 aa (SIISTLT) deleted; E44 format, IgG4) APTSSSTKKTQLQLEHLLLDLQMILNGINNYKNPKLTRMLTFKFYMPKKATELKHLQCLEEELKPLEEVLNLAQSKNFHLRPRDLISNINVIVLELKGSETTFMCEYADETATIVEFLNRWITFCQESKYGPPCPPCPAPEFLGGPSVFLFPPKPKDTLMISRTPEVTCVVVDVSQEDPEVQFNWYVDGVEVHNAKTKPREEQFNSTYRVVSVLTVLHQDWLNGKEYKCKVSNKGLPSSIEKTISKAKGQPREPQVYTLPPCQEEMTKNQVSLWCLVKGFYPSDIAVEWESNGQPENNYKTTPPVLDSDGSFFLYSRLTVDKSRWQEGNVFSCSVMHEALHNHYTQKSLSLSLG heavy: EIQLQQSGPELVKPGASVKVSCKASGYSFTDYNMYWVKQSHGESLEWIGYIDPYNGGTRYNQKFKGKATLTVDKSSSTAFMHLNSLTSEDSAVYYCARNGHWDGAWFAYWGQGTLVTVSAASTKGPSVFPLAPCSRSTSESTAALGCLVKDYFPEPVTVSWNSGALTSGVHTFPAVLQSSGLYSLSSVVTVPSSSLGTKTYTCNVDHKPSNTKVDKRVESKYGPPCPPCPAPEFLGGPSVFLFPPKPKDTLMISRTPEVTCVVVDVSQEDPEVQFNWYVDGVEVHNAKTKPREEQFNSTYRVVSVLTVLHQDWLNGKEYKCKVSNKGLPSSIEKTISKAKGQPREPQVCTLPPSQEEMTKNQVSLSCAVKGFYPSDIAVEWESNGQPENNYKTTPPVLDSDGSFFLVSRLTVDKSRWQEGNVFSCSVMHEALHNHYTQKSLSLSLG light: DIQMNQSPSSLSASLGDTITITCHASQNINVWLSWYQQKPGNIPKLLIYKASNLHTGVPSRFSGSRSGTGFTLTISSLQPEDIATYYCHQGQSYPFTFGSGTKLEIKRTVAAPSVFIFPPSDEQLKSGTASVVCLLNNFYPREAKVQWKVDNALQSGNSQESVTEQDSKDSTYSLSSTLTLSKADYEKHKVYACEVTHQGLSSPVTKSFNRGEC
 |  |  |  |  |  | 14.5 | 50.1 | 1.62 | 18 | 1.89 | 4.62 | 179 | 2.63 | W3XX115-T2U0.E44-5.uIgG4V1 (Fc fusion, IL-2 with C-terminal 3 aa (TLT) deleted; E44 format, IgG4) APTSSSTKKTQLQLEHLLLDLQMILNGINNYKNPKLTRMLTFKFYMPKKATELKHLQCLEEELKPLEEVLNLAQSKNFHLRPRDLISNINVIVLELKGSETTFMCEYADETATIVEFLNRWITFCQSIISESKYGPPCPPCPAPEFLGGPSVFLFPPKPKDTLMISRTPEVTCVVVDVSQEDPEVQFNWYVDGVEVHNAKTKPREEQFNSTYRVVSVLTVLHQDWLNGKEYKCKVSNKGLPSSIEKTISKAKGQPREPQVYTLPPCQEEMTKNQVSLWCLVKGFYPSDIAVEWESNGQPENNYKTTPPVLDSDGSFFLYSRLTVDKSRWQEGNVFSCSVMHEALHNHYTQKSLSLSLG heavy: EIQLQQSGPELVKPGASVKVSCKASGYSFTDYNMYWVKQSHGESLEWIGYIDPYNGGTRYNQKFKGKATLTVDKSSSTAFMHLNSLTSEDSAVYYCARNGHWDGAWFAYWGQGTLVTVSAASTKGPSVFPLAPCSRSTSESTAALGCLVKDYFPEPVTVSWNSGALTSGVHTFPAVLQSSGLYSLSSVVTVPSSSLGTKTYTCNVDHKPSNTKVDKRVESKYGPPCPPCPAPEFLGGPSVFLFPPKPKDTLMISRTPEVTCVVVDVSQEDPEVQFNWYVDGVEVHNAKTKPREEQFNSTYRVVSVLTVLHQDWLNGKEYKCKVSNKGLPSSIEKTISKAKGQPREPQVCTLPPSQEEMTKNQVSLSCAVKGFYPSDIAVEWESNGQPENNYKTTPPVLDSDGSFFLVSRLTVDKSRWQEGNVFSCSVMHEALHNHYTQKSLSLSLG light: DIQMNQSPSSLSASLGDTITITCHASQNINVWLSWYQQKPGNIPKLLIYKASNLHTGVPSRFSGSRSGTGFTLTISSLQPEDIATYYCHQGQSYPFTFGSGTKLEIKRTVAAPSVFIFPPSDEQLKSGTASVVCLLNNFYPREAKVQWKVDNALQSGNSQESVTEQDSKDSTYSLSSTLTLSKADYEKHKVYACEVTHQGLSSPVTKSFNRGEC
